{"source": "paper PMC3325594", "about": "(International Journal of Toxicology, 2012)", "key": {"female mice": {"system": "female mice", "experiment": "2-year carcinogenicity study, survival rates in female mice", "type": "in vivo", "settings": "12.5 IU/kg"}, "female rats": {"system": "female rats", "experiment": "2-year carcinogenicity study, survival rates in female rats", "type": "in vivo", "settings": "5 IU/kg"}, "[1]": {"system": "insulin receptor (IR) signaling", "settings": "cited from earlier work"}, "[2]": {"system": "insulin-like growth factor 1 receptor (IGF-1R)", "settings": "in vitro; cited from earlier work"}, "insulin receptor (IR)": {"system": "insulin receptor (IR)", "settings": "in vitro; cited from earlier work"}, "rats": {"system": "rats", "settings": "12-month toxicity study; cited from earlier work"}, "mammalian cell lines": {"system": "mammalian cell lines", "settings": "cited from earlier work"}, "[3]": {"system": "mammary gland of young female rats", "settings": "26-week toxicity study; cited from earlier work"}}}
{"substance": "NPH: neutral protamine Hagedorn (NPH) insulin, comparator group", "values": [{"measurement": "Survival rate", "setting": "female mice; week 80", "result": 56, "unit": "%"}, {"measurement": "Survival rate", "setting": "female mice; week 81", "result": 56, "unit": "%"}, {"measurement": "Survival rate", "setting": "female mice; week 82", "result": 56, "unit": "%"}, {"measurement": "Survival rate", "setting": "female mice; week 85", "result": 50, "unit": "%"}, {"measurement": "Survival, animals alive", "setting": "female mice; week 88, of 50 initial animals", "result": 22, "unit": "n"}, {"measurement": "Survival, animals alive", "setting": "female mice; week 89, of 50 initial animals", "result": 22, "unit": "n"}, {"measurement": "Survival rate", "setting": "female rats; week 80", "result": 72, "unit": "%"}, {"measurement": "Survival rate", "setting": "female rats; week 81", "result": 72, "unit": "%"}, {"measurement": "Survival rate", "setting": "female rats; week 82", "result": 72, "unit": "%"}, {"measurement": "Survival rate", "setting": "female rats; week 83", "result": 70, "unit": "%"}, {"measurement": "Survival rate", "setting": "female rats; week 84", "result": 70, "unit": "%"}]}
{"substance": "[Gly^A21] human insulin [M1]", "values": [{"measurement": "In vitro metabolic and mitogenic profiles", "setting": "[1]", "result": "comparable with human insulin"}]}
{"substance": "[Asp^B10] insulin", "values": [{"measurement": "Affinity toward IGF-1R compared to regular human insulin", "setting": "[2]", "result": "higher affinity"}, {"measurement": "Affinity toward the insulin receptor (IR) compared to regular human insulin", "setting": "insulin receptor (IR)", "result": "higher affinity"}, {"measurement": "Occupancy time at the IR compared to regular human insulin", "setting": "insulin receptor (IR)", "result": "prolonged occupancy time"}, {"measurement": "Incidence of mammary tumors", "setting": "rats", "result": "higher incidence of mammary tumors"}, {"measurement": "Proliferation rate in mammalian cell lines compared to regular human insulin", "setting": "mammalian cell lines", "result": "higher proliferation rate"}]}
{"substance": "insulin detemir", "values": [{"measurement": "Proliferative effect in the mammary gland", "setting": "[3]", "result": "modest proliferative effect"}]}
{"substance": "[Gly^A21, des-Thr^B30]-human insulin [M2]", "values": [{"measurement": "In vitro metabolic and mitogenic profiles", "setting": "[1]", "result": "comparable with human insulin"}]}
